Test [1] has as its target T1, IL-36b (human, UniProt Q9NZH7 1-164, limits assumed).
T1 sequence (looked up): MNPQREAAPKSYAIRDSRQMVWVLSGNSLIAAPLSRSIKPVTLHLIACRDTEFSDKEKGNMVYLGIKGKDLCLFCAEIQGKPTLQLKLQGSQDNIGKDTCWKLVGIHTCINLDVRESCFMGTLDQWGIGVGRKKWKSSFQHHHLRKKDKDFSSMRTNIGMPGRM
Briefly: CDI HuProt native protein microarray. How it is done:
(§1) To confirm specificity to IL-38, several lead candidate antibodies (CD1-M3, CD1-M8, NZB-M8) were analyzed in a High-Spec Cross-reactivity Assay using native HuProt arrays (CDI Laboratories). […] of antibody was incubated overnight in a cold room, washed, and probed with anti-human secondary antibodies. Fluorescence intensity (F635) as an indicator of binding was measured for each spot. CDI software quantified the specificity of the antibody to each spot based on a Z-score. Z-score is defined as [F635−(Average F635 on array)]/(Standard deviation of F635 on array). S-score is defined as the difference between the Z-score of a given protein and the Z-score of the next highest protein.

Test [2] deals with T2, IL-36a (human, UniProt Q9UHA7 1-158, limits assumed).
T2 sequence (looked up): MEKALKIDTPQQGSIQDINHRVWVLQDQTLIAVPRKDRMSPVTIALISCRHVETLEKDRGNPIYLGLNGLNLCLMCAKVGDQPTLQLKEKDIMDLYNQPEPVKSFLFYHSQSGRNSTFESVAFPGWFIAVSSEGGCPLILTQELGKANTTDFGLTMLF
Nature of the test: CDI HuProt native protein microarray. How it is done: as §1

For test [3], the target named is T3, IL-1Ra (human, UniProt P18510 26-177, limits assumed). Briefly: CDI HuProt native protein microarray. Here is the method: as §1
T3 sequence (P18510 26-177 limits assumed): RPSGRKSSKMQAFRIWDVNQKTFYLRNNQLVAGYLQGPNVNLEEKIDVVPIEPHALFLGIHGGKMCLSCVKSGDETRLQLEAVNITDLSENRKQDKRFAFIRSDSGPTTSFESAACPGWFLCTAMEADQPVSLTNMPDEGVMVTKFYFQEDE
Test [4] has as its target T4, IL-36g (human, UniProt Q9NZH8 1-169, limits assumed).
T4 sequence (looked up): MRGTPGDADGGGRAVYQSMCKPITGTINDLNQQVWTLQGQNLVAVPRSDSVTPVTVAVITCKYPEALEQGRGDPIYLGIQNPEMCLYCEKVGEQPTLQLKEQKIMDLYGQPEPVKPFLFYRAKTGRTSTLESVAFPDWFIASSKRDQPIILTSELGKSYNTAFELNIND
Briefly: CDI HuProt native protein microarray. Here is the method:
as §1

The target of test [5] is T5, IL-36Ra (human, UniProt Q9UBH0 1-155, limits assumed).
T5 sequence (looked up): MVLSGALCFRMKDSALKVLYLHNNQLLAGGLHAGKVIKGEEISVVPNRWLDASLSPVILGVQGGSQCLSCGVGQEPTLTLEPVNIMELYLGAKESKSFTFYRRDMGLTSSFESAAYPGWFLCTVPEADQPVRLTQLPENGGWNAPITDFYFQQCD
Nature of the test: CDI HuProt native protein microarray. How it is done: as §1

Test [6] concerns the target T6, IL-33 (human, UniProt O95760 1-270, limits assumed).
T6 sequence (looked up): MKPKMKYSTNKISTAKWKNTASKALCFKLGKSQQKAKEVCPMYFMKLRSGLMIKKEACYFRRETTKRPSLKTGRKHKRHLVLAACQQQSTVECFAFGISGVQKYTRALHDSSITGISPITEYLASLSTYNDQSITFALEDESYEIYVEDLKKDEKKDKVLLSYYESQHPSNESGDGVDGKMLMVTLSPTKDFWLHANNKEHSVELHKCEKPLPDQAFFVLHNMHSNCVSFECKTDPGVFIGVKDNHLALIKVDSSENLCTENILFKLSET
Nature of the test: CDI HuProt native protein microarray. How it is done: as §1

The target in test [7] is T7, IL-1α (human, UniProt P01583 1-271, limits assumed).
T7 sequence (looked up): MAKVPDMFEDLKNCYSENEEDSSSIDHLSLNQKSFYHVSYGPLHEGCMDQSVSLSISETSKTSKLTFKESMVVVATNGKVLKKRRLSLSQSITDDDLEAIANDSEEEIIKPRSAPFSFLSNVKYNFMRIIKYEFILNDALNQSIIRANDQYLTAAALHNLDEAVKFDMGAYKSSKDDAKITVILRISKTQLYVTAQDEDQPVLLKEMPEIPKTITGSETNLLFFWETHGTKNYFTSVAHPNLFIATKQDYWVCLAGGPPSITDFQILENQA
Briefly: CDI HuProt native protein microarray. Here is the method: as §1

Test [8] has as its target T8, IL-37 (human, UniProt Q9NZH6 1-218, limits assumed).
T8 sequence (looked up): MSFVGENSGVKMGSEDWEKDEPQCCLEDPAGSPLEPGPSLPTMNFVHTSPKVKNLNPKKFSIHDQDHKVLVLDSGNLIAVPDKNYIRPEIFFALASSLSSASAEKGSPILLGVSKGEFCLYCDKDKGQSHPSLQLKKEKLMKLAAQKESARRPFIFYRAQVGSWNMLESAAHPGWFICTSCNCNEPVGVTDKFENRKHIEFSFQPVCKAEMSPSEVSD
Nature of the test: CDI HuProt native protein microarray. Here is the method: as §1

Test [9] has as its target IL-1β (human, UniProt P01584 1-269, limits assumed). Nature of the test: CDI HuProt native protein microarray. Here is the method: as §1
Test [10] addresses T9, IL-18 (human, UniProt Q14116 1-193, limits assumed).
T9 sequence (looked up): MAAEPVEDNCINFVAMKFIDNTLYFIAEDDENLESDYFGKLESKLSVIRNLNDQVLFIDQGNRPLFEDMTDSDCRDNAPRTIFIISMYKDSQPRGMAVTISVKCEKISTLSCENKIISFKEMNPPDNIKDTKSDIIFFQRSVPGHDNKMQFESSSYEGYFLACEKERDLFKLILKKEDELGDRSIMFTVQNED
Briefly: CDI HuProt native protein microarray. Here is the method: as §1

For test [11], the target named is T3, IL-1Ra. Nature of the test: CDI HuProt native protein microarray, IL-1 family members. How it is done: as §1
Test [12] deals with T4, IL-36g. The description is as above. How it is done: as §1
Test [13] deals with T5, IL-36Ra. The test is described as above. How it is done: as §1
Test [14] concerns the target T8, IL-37. The test is described as above. Here is the method: as §1

B1: CD1-M3 (antibody, V domains shown)
VH: EVQLQQSGPELVKPGASVKIPCKASGYTFTDYNMDWVKQSHGKSLEWIGDINPNNGGTIYNQKFKGKATLTVDKSSSTAYMELRSLTSEDTAVYYCSRPYYGYFAYWGQGTLVTVSA
VL: DVVMTQSPLSLPVSLGDQASISCRSSQSLVHSHENTFLHWYLQKPGQSPKLLIYRVSNRFSGVPDRFSGSGSGTDFTLKISRVEAEDLGVYFCSQSTHVPLTFGAGTKLELK
notes: Mouse monoclonal from a hybridoma of a CD-1 mouse immunized with full length recombinant IL-38
Consider B1, for which the binding result in test [1], in [2], in test [3], in test [4], in test [5] and in test [6] was “no binding” in each case. Moreover, the binding result in test [7], in test [8], in [9] and in [10] was “no binding” in each case. The Z-score in test [11] is -0.013; in test [12], -0.017; in test [13], -0.017; in test [14] it was -0.013.

(Values after patent US20240174741A1 (IMMUNOME, published 2024).)
